Experimental findings from publication PMC3936717 (Nucleic Acids Research, 2013) are described below.

This series concerns the molecule itself. Kind of series: crystal structure.

B1: P2 Cox protein of bacteriophage P2 (natural protein, UniProt P07695 1-91, looked up)
chain: MSKQVTLMTDAIPYQEFAKLIGKSTGAVRRMIDKGKLPVIDMTDPQSASGRAGEYWVYLPAWNNGLKLAYESRPKEIRDGWLMWLGLGEPR
As to B1, the binding result is given as “binds”.
